# Data reported in the supplement of paper PMC9170038.
# System: K4 kissing-loop RNA reporter
# Test: apparent KD of K4 kissing-loop reporter; higher = weaker reporter binding
# Settings: Eterna round: R107
# Experimental: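 RNA-MaP round R107: designed RNA switches with theophylline, tryptophan, arginine or FMN aptamers are transcribed on-chip within common flanks. They are titrated with a labelled K4 kissing-loop RNA reporter in RNA-MaP buffer (100 mM Tris pH 7.5, 80 mM KCl, 4 mM MgCl2), without ligand or with the indicated ligand. Median apparent KD per design.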
# [1] = input ligand: theophylline 20 uM
# [2] = input ligand: tryptophan 2.4 mM
# 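Also: bound reporter read as fluorescence of individual clusters on recovered sequencing chips by microscopy, with normalized cluster intensities fitted with a binding model.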
Sequence,apparent KD of K4 kissing-loop reporter (input ligand: FMN 200 uM),apparent KD of K4 kissing-loop reporter (input ligand: arginine 13.2 mM),apparent KD of K4 kissing-loop reporter (input ligand: none),apparent KD of K4 kissing-loop reporter [1],apparent KD of K4 kissing-loop reporter [2]
CGGAUGUAGUGAUGUUAUAUUAGAUGUAGACGAGGACCGGUACGGCCGCCACUCGUGAUGGCUGCUAGCGCGUUGCGAGGUUUGC [ExTryptoA.Co],408 nM,558 nM,567 nM,633 nM,386 nM
GGAUAGGACACAGGAUAUGGGCUAGGCAAGAAUAACUUGUCUAGCAAAUCCAUGAGGAGUGAUGUUCCAGAAGGGUGUCCUAUCG [FmnBX 1 C11+G75],431 nM,111 nM,94.9 nM,97.3 nM,86.7 nM
AACUUGUUUGGAGGAUAUUCUUUAUUCGACAUAACCUUCUAUAAGGUGCAGUGAUGUUGCAAUAUAGGAGAAGGUCGAGUGAGAA [Exclusion FMN B Gf 16],207 nM,169 nM,206 nM,219 nM,186 nM
AUUCUUAUAAUAACACUAUAUACAACUGAAGGAGCGACAAUAAAGUCAGGUAGGUCGCAGAAUAAAUGAGUGAUGUUCAUUUUUA [JR_ExcArginiA_Sub011],129 nM,153 nM,129 nM,150 nM,86.8 nM
GAGGUGGAGUGAUGUUCCACACUCGCUAGUAAGGAUAUGGCUGCUUCCAGAAGGUACCUAGAUUCAGUGUGCAUCAGUAACGUGC [theeternabot_exclusion_KL_FMN_A_4],95.2 nM,96.3 nM,106 nM,105 nM,96.3 nM
GUAGCACUUGAUAGUGAUGUUAUCAAGGACAAGGAUAUCAUCUCAAUGAGAAGGUGUCCUUGAUAACAGCUACGGGAAUAUCCCA [Omei KL FMN A Exc D v1],103 nM,267 nM,288 nM,280 nM,312 nM
UAUAUAGUGACGGCCGCCACUAUAUUAAUGUUUUUGUUAGAGUGAUGUUUUGUUUAAUAUUUUUAUAGGACCGGGUUAUAUGUUA [zsqqxmullin],569 nM,338 nM,641 nM,557 nM,580 nM
AAAGAGUCACUCGAAGCUAUCGAAGAUAGGCGAGGACCGGUACGGCCGCCACUCGGAGUGAUGUUCCGAAGACUGUAAAAUAAAA [MatMod 12 - Jieux - Exclusion - Tryptophan A],208 nM,240 nM,206 nM,170 nM,295 nM
UUUAGGAGCGGUGUUGAUUAGGGAGCGGAAGGAGCGCCGAUUAUGGCAGGUAGGUCGCCGGAAUGUAGUGAUGUUGCAUAGAGGG [ExArgA.V],214 nM,186 nM,185 nM,154 nM,166 nM
AAAUGCUUGUAUUUGAACAAUUCCUUUAGGGAGGAUAUUGGUAAUACAAGAAGGCCCUGAUGGGAGUGAUGUUCCCAUAACGCGG [Exclusion FMN A GF16],114 nM,95 nM,90.8 nM,90.2 nM,91.1 nM
GGCACGGUGACGCGGCUGCCGUGCGCUUGGGAGGAUAUGUUUCGUGACAGAAGGCCCAGUGAUGUUGGGUCUGUUCAAAAGGACU [Edmatianri],339 nM,104 nM,125 nM,121 nM,104 nM
GAUCUGAACGAAAGUUCGGAUCAUUCCGAUACCAGUAUGGAUUCAUACCCUUGGCAGCGGGAUUCUGCUAUGGAGUGAUGUUCCA [Theophylline A K4 15],422 nM,332 nM,475 nM,400 nM,362 nM
GUCAUCAGAUCGCAAGAUCUGAUAGCCGAUACCAGCGCGAAGGUGCGCCCUUGGCAGCGGCACCGAGUGAUGUUCGGUCAGACGG [#2 Same State - Theophylline A Attempt #4 (HarryS)],658 nM,796 nM,776 nM,440 nM,594 nM
UCGAGUUGACGAAAAGUCAACUCGUGAGAUACCAGUGACGAAAGUCACCCUUGGCAGCUCACUGCCAGUGAUGUUGGUGUAUAGA [#06 K4 Theophylline A Same State],856 nM,840 nM,1030 nM,996 nM,955 nM
GGUGACAACCAGAGGUGAUGUAUAGUAUCGCGAGGACCGGUACGGCCGCCACUCGUGAAGAGAAAGGAGUGAUGUUCCGUAAUGG [Kazoo C7],287 nM,276 nM,272 nM,390 nM,138 nM
ACCCAAGCCCAUCGCGCAGUGAUGUUGUCGCGAGGACCGGUACGGCCGCCACUCGAUAGCAGUGGCAACGUCAUCAUAAUCGAUU [theeternabot_exclusion_KL_Trp_A_50],340 nM,310 nM,352 nM,299 nM,563 nM
